Values belong to the binder of their own block, whether it stands above or below them. No end group written: not given here.
Assays:
[1] = molecular target: UAG receptor on HIT-T15 pancreatic β cells (hamster); experiment: competition with [125I-Tyr4]-UAG on HIT-T15 β-cell membranes, mean±SEM of three experiments
[2] = molecular target: UAG receptor on INS-1E pancreatic β cells (rat); experiment: competition with [125I-Tyr4]-UAG on INS-1E β-cell membranes, mean±SEM of three experiments

IC50 [1]: 3.8 nM | IC50 [2]: 2.4 nM
B1: UAG (6-13) (peptide)
peptide: SPEHQRVQ
modifications: not fully specified

IC50 [1]: 2.6 nM | IC50 [2]: 2 nM
B2: unacylated ghrelin UAG (1-28) (peptide)
peptide: GSSFLSPEHQRVQQRKESKKPPAKLQPR

— patent US20100168033A1, “UNACYLATED GHRELIN AS THERAPEUTIC AGENT IN THE TREATMENT OF METABOLIC DISORDERS” (ALIZE PHARMA SAS, priority 2007, published 2010)
